This is an account of results in patent US20140161732A1 (published 2014).

Bridge positions count the residues as written; N and C are the ends.

For this test, the target named is KDR on human umbilical vein endothelial cells (HUVECs) (human, UniProt P35968 20-1356). As to the kind of experiment: cell-based or functional assay.
Sequence of KDR on human umbilical vein endothelial cells (HUVECs) (P35968 20-1356): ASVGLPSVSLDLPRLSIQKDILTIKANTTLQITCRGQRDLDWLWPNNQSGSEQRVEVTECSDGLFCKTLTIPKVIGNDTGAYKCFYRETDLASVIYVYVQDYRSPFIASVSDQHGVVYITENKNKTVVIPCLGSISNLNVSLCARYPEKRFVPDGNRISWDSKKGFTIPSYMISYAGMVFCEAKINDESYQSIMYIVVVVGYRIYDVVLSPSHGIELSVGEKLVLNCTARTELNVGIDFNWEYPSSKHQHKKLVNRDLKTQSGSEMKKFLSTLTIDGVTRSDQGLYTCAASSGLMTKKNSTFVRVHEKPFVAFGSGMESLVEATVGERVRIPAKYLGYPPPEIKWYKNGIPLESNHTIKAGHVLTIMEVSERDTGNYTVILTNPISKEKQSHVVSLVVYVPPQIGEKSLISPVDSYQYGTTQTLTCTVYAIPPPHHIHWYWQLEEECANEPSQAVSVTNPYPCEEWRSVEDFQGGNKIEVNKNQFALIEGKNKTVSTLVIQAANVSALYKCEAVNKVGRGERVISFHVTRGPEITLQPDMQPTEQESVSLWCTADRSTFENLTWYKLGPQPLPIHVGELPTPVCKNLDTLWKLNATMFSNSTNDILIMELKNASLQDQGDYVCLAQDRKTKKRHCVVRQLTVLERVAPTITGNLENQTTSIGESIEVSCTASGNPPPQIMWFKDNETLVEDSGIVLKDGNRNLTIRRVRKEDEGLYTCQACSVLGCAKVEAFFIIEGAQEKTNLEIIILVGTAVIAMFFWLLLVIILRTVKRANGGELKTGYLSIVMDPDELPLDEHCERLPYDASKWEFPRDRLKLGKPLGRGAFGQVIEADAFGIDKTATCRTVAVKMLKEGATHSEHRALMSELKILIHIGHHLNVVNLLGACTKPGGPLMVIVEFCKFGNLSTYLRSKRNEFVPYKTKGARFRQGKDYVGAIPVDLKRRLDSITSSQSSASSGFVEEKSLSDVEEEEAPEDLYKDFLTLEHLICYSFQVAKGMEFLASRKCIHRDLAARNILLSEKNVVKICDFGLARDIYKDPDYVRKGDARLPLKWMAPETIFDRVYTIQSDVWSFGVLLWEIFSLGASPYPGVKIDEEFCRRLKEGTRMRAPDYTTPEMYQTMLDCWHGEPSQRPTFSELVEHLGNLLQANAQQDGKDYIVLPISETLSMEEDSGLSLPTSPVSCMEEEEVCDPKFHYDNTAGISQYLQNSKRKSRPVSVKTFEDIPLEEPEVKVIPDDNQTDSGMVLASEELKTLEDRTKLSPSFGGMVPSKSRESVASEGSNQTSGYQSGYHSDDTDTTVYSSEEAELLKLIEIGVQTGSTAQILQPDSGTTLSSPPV

B1: SEQ ID NO:269 (peptide)
peptide: Ac-AGWIECYHPDGICYHFGTGGGK-NH2
modifications: disulfide 6-13 (inferred); also: fluorescein on C-terminal Lys in anisotropy assay only
B1: the “VEGF-induced KDR phosphorylation in HUVECs (immunoblot)” value was not below 50 % inhibition at 10 µM.

B2: SEQ ID NO:294 (peptide)
peptide: Ac-GDSRVCWEDSWGGEVCFRYDPGGGK-NH2
modifications: disulfide 6-16 (inferred); also: fluorescein on C-terminal Lys in anisotropy assay only
On to B2, for which the “VEGF-induced KDR phosphorylation in HUVECs (immunoblot)” value is not below 50 % inhibition at 10 µM.
